Measurements published in patent publication US6855693B2, “Peptides for activation and inhibition of δPKC” (The Board of Trustees of the Leland Stanford Junior …, priority 2001, dated 2005).
No end group written: not given here.

Tests used:
[1] = tested on: whole rat hearts; assay: Ex vivo Langendorff perfused whole hearts, peptide before 30 min global ischemia, creatine phosphokinase release
Text: In another study performed in support of the invention, the δPKC selective inhibitor peptide, δV1-1, or the activator peptide, ψδRACK, were delivered to whole hearts ex vivo to determine if the peptides have activity when introduced extracellulary to a whole organ. As described in Example 3, δV1-1 and ψδRACK peptides were conjugated to a carrier peptide, a Tat-derived peptide. The peptides were delivered into Langendorff perfused rat hearts prior to induction of an ischemic period. After perfusion with the peptides, global ischemia was effected for 30 minutes. After the 30 minute ischemic period, the amount of creatine phosphokinase (CPK) released was monitored during a 30 minute reperfusion period.
Adult, male rats were anesthetized with i.p. avertin, and their hearts were rapidly removed and cannulated via the aorta for perfusion as described in the art (Colbert, M. C. et al.) using Langendorff set-up. Care was taken to have the hearts perfused within 90 seconds of removal. The hearts were perfused with oxygenated Krebs-Henseleit solution comprised of, in […], NaCl 120; KCl 5.8; NaHCO3 25; NaH2O4 1.2; MgSO4 1.2; CaCl2 1.0; and dextrose 10, pH 7.4 at 37 C.
After a 10-20 minute equilibration period, the hearts were perfused with δV1-1 peptide (SEQ ID NO:4) or with ψδRACK peptide (SEQ ID NO:6), prepared as described in Example 1 but conjugated to a Tat-derived peptide (Tat 47-57, SEQ ID NO:9), for 20 minutes. Perfusion was maintained at a constant flow of 10 mL/min with Krebs-Hanseleit solution containing 0.5 μM of the appropriate peptide. The Langendorff method employed used retrograde flow from the […] and into the coronary arteries, bypassing the pulmonary arteries.
To induce global ischemia, flow was interrupted for 30 minutes. After the ischemic event, the hearts were re-perfused for 30-60 minutes. During reperfusion, ischemia-induced cell damage was determined by measuring the activity of creatine phosphokinase (CPK) (absorbance at 520 nm) in the perfusate using a Sigma kit. […]

[2] = molecular target: T1, δPKC (Rattus norvegicus, UniProt P09215); assay: Translocation of δPKC in primary cardiac myocytes (Western blot of soluble and particulate fractions); format: cell-based
T1 construct: endogenous in cells; host or cells: primary neonatal rat cardiac myocytes
T1 sequence (P09215 whole entry): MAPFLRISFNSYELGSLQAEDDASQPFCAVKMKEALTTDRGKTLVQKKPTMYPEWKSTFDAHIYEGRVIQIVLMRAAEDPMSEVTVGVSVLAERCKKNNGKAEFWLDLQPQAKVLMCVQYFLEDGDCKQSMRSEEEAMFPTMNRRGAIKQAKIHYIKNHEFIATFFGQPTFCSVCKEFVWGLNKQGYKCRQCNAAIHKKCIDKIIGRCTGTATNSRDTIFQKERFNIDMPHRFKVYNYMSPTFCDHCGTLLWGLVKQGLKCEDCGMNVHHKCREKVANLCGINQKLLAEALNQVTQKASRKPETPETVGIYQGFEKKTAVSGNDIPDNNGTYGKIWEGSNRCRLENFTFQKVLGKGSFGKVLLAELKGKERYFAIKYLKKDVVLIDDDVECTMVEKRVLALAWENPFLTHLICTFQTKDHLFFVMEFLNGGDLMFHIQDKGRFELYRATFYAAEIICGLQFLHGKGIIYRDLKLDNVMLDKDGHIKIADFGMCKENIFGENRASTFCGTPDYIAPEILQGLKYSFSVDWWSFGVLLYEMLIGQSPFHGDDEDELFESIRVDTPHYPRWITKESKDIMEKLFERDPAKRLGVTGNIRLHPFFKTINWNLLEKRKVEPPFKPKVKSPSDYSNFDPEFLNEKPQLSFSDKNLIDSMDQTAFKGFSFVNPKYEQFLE
Procedure: As described in Example 1, the δV1-1 and ψδRACK peptides were analyzed to determine whether the peptides had activity, and if so, whether the activity was as an agonist or an antagonist of δPKC. As will be shown, δV1-1, δV1-2 and δV1-5 are δPKC antagonists and ψδRACK is a δPKC agonist. In these studies, the δV1-1 and ψδRACK peptides were modified with a carrier peptide by cross-linking via an N-terminal Cys-Cys bond to the Drosophila Antennapedia homeodomain (SEQ ID NO:8; Théodore, L., et al.; Johnson, J. A. et al., 1996b). In other studies, not described here, the peptide was modified with Tat (SEQ ID NO:9) or with polyarginine (Mitchell et al., 2000; Rothbard et al., 2000) and gave results similar to those described herein. Details of the study are set forth in Example 1. In brief, the Antennapedia-conjugated peptides were introduced to cardiac cells at a concentration of 500 nM in the presence and absence of phorbol 12-myristate 13-acetate (PMA) or in the presence of each other. Translocation of δPKC isozyme was assessed by Western blot analysis cystosolic and particulate fractions of treated cells. Subcellular localization of δPKC isozyme was assessed by immunofluorescence by probing the blot with […], and anti-εPKC antibodies. Translocation was expressed as the amount of isozyme in the particulate fraction over the amount of isozyme in non-treated cells.
Primary cardiac myocyte cell cultures (90-95% pure) were prepared from newborn rats (Gray, M. O. et al.; Disatnik M.-H. et al.). The peptides δV1-1 and ψδRACK were introduced into cells at an applied concentration of 500 nM in the presence and absence of phorbol 12-myristate 13-acetate (PMA) at concentrations of 3 nm and 10 nm, respectively, for 10-20 minutes. In a third set of cells, the peptide δV1-1 was applied at a concentration of 500 nM in the presence and absence of 500 nM ψδRACK.
Translocation of δPKC isozyme was assessed by using δPKC isozyme-specific antibodies in Western blot analysis (Santa Cruz Biotechnology). Western blot analysis of cystosolic and particulate fractions of treated cells was carried out as described by Johnson et al., 1995. Subcellular localization of dPKC isozymes was assessed by chemiluminescence of blots probed with anti-δPKC, anti-αPKC and anti-εPKC antibodies. Amounts of PKC isozymes in each fraction was quantitated using a scanner and translocation is expressed as the amount of isozymes in the particulate fraction over the amount of isozymes in non-treated cells. Changes in translocation of δPKC isozyme were also determined by immunofluoresence study of treated and fixed cells (Gray et al., 1997). Translocation was determined by counting over 100 cells/treatment in a blinded fashion. The results are shown in FIG. 2A-2B, FIGS. 3A-3B and FIGS. 4A-4B.

[3] = tested on: adult female pigs; assay: Pathology of blood and tissue samples of the treated pigs; set-up: species or system pig; conditions: pigs treated in vivo with δV1-1
Text: (§1) Blood samples and tissue samples of lung, liver, brain, gut, kidney, etc. were collected from the animals and analyzed at a pathology lab. […] Kidney, liver, brain, and lung functions were normal and all blood analyses were also normal.

[4] = tested on: mouse model; assay: Safety of two injections in the mouse model; format: in vivo; conditions: 1 μM final concentration
Text: as §1

[5] = 0.5 μM Tat-conjugated peptide for 20 minutes before 30 minute global ischemia

Sequence | enhancement of cardiac damage induced by ischemia (CPK release) [1, 5] | δPKC translocation induced by the peptide ([2]; 500 nM Antennapedia-conjugated peptide, cardiac myocytes) | effect on the δV1-1 inhibition of basal δPKC partitioning ([2]; 500 nM ψδRACK together with 500 nM δV1-1) | release of creatine kinase ([1]; 0.5 μM Tat-conjugated peptide before 30 minute global ischemia, reperfusion period) | protection against ischemic damage in an intact heart [1, 5] | blood samples and tissue samples of lung, liver, brain, gut, kidney, pathology [3] | adverse effect of two injections ([4]; mouse model) | blood analyses ([4]; two injections) | kidney, liver, brain, and lung functions ([4]; two injections) | PMA-induced δPKC translocation ([2]; 500 nM Antennapedia-conjugated peptide, with PMA, 10-20 minutes, newborn rat cardiac myocytes) | basal partitioning of δPKC in the particulate fraction ([2]; 500 nM δV1-1, no ψδRACK)
MRAAEDPM (also: conjugated to Antennapedia or Tat carrier; listed as Rattus norvegicus) [ψδRACK, tested conjugated to Antennapedia or Tat carrier] | about 30% | selectively induced | reversed |  |  |  |  |  |  |  | 
SFNSYELGSL (also: conjugated to Antennapedia or Tat carrier; listed as Rattus norvegicus) [δV1-1, tested conjugated to Antennapedia or Tat carrier] |  |  |  | decreased | greater than 50% | All samples were normal and no inflammation or tissue abnormalities were observed | no adverse effect | normal | normal | inhibited | inhibited
